{"source": "paper PMC5467742", "about": "(Cell, 2017)", "key": {"cryo-EM structure": {"target": "the molecule itself", "test": "cryo-EM structure"}, "MlaE": {"target": "T1, MlaE (E. coli, UniProt P64606 1-260)", "T1 sequence (looked up)": "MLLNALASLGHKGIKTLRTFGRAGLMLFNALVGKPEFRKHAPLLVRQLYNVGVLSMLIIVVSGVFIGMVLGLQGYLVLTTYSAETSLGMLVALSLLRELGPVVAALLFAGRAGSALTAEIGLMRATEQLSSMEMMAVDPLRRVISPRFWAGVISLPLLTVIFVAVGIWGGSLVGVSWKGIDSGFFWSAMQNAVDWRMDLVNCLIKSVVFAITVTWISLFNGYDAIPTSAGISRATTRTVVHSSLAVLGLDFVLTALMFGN", "test": "affinity purification with mass spectrometry"}, "negative-stain EM": {"target": "the molecule itself", "test": "negative-stain EM"}, "[1]": {"target": "T2, MlaA with C-terminal 6xHis tag (E. coli, UniProt P76506 18-251)", "T2 sequence (looked up)": "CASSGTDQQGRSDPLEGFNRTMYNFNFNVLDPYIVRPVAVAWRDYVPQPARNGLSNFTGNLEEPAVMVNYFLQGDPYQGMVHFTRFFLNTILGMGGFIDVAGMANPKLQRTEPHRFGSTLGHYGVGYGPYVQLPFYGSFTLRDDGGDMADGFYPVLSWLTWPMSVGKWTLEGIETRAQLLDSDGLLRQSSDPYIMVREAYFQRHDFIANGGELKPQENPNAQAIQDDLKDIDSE", "test": "affinity purification with mass spectrometry"}, "crystal structure": {"target": "the molecule itself", "test": "crystal structure"}}, "note": "Values joined by “and” are separate entries in the source; they are usually repeats but may differ in a detail not shown here. Equal entries are not always repeated.", "data": [{"binder": "PqiB periplasmic domain (residues 39-546) (domain or fragment, E. coli, UniProt P43671 39-546, looked up) SHQGPEVTLITANAEGIEGGKTTIKSRSVDVGVVESATLADDLTHVEIKARLNSGMEKLLHKDTVFWVVKPQIGREGISGLGTLLSGVYIELQPGAKGSKMDKYDLLDSPPLAPPDAKGIRVILDSKKAGQLSPGDPVLFRGYRVGSVETSTFDTQKRNISYQLFINAPYDRLVTNNVRFWKDSGIAVDLTSAGMRVEMGSLTTLLSGGVSFDVPEGLDLGQPVAPKTAFVLYDDQKSIQDSLYTDHIDYLMFFKDSVRGLQPGAPVEFRGIRLGTVSKVPFFAPNMRQTFNDDYRIPVLIRIEPERLKMQLGENADVVEHLGELLKRGLRGSLKTGNLVTGALYVDLDFYPNTPAITGIREFNGYQIIPTVSGGLAQIQQRLMEALDKINKLPLNPMIEQATSTLSESQRTMKNLQTTLDSMNKILASQSMQQLPTDMQSTLRELNRSMQGFQPGSAAYNKMVADMQRLDQVLRELQPVLKTLNEKSNALVFEAKDKKDPEPKRAKQ", "values": [{"measurement": "stoichiometry N", "setting": "cryo-EM structure", "value": 6}]}, {"binder": "His-tagged MlaD, co-expressed from the mlaFEDCB operon (natural protein, E. coli, UniProt P64604 1-183, looked up) MQTKKNEIWVGIFLLAALLAALFVCLKAANVTSIRTEPTYTLYATFDNIGGLKARSPVSIGGVVVGRVADITLDPKTYLPRVTLEIEQRYNHIPDTSSLSIRTSGLLGEQYLALNVGFEDPELGTAILKDGDTIQDTKSAMVLEDLIGQFLYGSKGDDNKNSGDAPAAAPGNNETTEPVGTTK", "values": [{"measurement": "binding result", "setting": "MlaE", "value": "binds"}]}, {"binder": "YebT, full length, C-terminal 6xHis tag (natural protein, E. coli, UniProt P76272 1-877, looked up) MSQETPASTTEAQIKNKRRISPFWLLPFIALMIASWLIWDSYQDRGNTVTIDFMSADGIVPGRTPVRYQGVEVGTVQDISLSDDLRKIEVKVSIKSDMKDALREETQFWLVTPKASLAGVSGLDALVGGNYIGMMPGKGKEQDHFVALDTQPKYRLDNGDLMIHLQAPDLGSLNSGSLVYFRKIPVGKVYDYAINPNKQGVVIDVLIERRFTDLVKKGSRFWNVSGVDANVSISGAKVKLESLAALVNGAIAFDSPEESKPAEAEDTFGLYEDLAHSQRGVIIKLELPSGAGLTADSTPLMYQGLEVGQLTKLDLNPGGKVTGEMTVDPSVVTLLRENTRIELRNPKLSLSDANLSALLTGKTFELVPGDGEPRKEFVVVPGEKALLHEPDVLTLTLTAPESYGIDAGQPLILHGVQVGQVIDRKLTSKGVTFTVAIEPQHRELVKGDSKFVVNSRVDVKVGLDGVEFLGASASEWINGGIRILPGDKGEMKASYPLYANLEKALENSLSDLPTTTVSLSAETLPDVQAGSVVLYRKFEVGEVITVRPRANAFDIDLHIKPEYRNLLTSNSVFWAEGGAKVQLNGSGLTVQASPLSRALKGAISFDNLSGASASQRKGDKRILYASETAARAVGGQITLHAFDAGKLAVGMPIRYLGIDIGQIQTLDLITARNEVQAKAVLYPEYVQTFARGGTRFSVVTPQISAAGVEHLDTILQPYINVEPGRGNPRRDFELQEATITDSRYLDGLSIIVEAPEAGSLGIGTPVLFRGLEVGTVTGMTLGTLSDRVMIAMRISKRYQHLVRNNSVFWLASGYSLDFGLTGGVVKTGTFNQFIRGGIAFATPPGTPLAPKAQEGKHFLLQESEPKEWREWGTALPK", "values": [{"measurement": "stoichiometry N", "setting": "negative-stain EM", "value": 6}]}, {"binder": "OmpF (natural protein, E. coli (endogenous in Rosetta 2 (DE3)), UniProt P02931 23-362, looked up) AEIYNKDGNKVDLYGKAVGLHYFSKGNGENSYGGNGDMTYARLGFKGETQINSDLTGYGQWEYNFQGNNSEGADAQTGNKTRLAFAGLKYADVGSFDYGRNYGVVYDALGYTDMLPEFGGDTAYSDDFFVGRVGGVATYRNSNFFGLVDGLNFAVQYLGKNERDTARRSNGDGVGGSISYEYEGFGIVGAYGAADRTNLQEAQPLGNGKKAEQWATGLKYDANNIYLAANYGETRNATPITNKFTNTSGFANKTQDVLLVAQYQFDFGLRPSIAYTKSKAKDVEGIGDVDLVNYFEVGATYYFNKNMSTYVDYIINQIDSDNKLGVGSDDTVAVGIVYQF", "values": [{"measurement": "stoichiometry N", "setting": "[1]", "value": "~1"}]}, {"binder": "MlaD core MCE domain (residues 32-140) (domain or fragment, E. coli, UniProt P64604 32-140, looked up) TSIRTEPTYTLYATFDNIGGLKARSPVSIGGVVVGRVADITLDPKTYLPRVTLEIEQRYNHIPDTSSLSIRTSGLLGEQYLALNVGFEDPELGTAILKDGDTIQDTKSA", "values": [{"measurement": "stoichiometry N", "setting": "crystal structure", "value": "7 and 14"}]}]}
